Test results as given in the supplement of paper PMC10567573.

B1: FAM46D (parent)
chain: LELKFVSSLRRQFEFSVDSFQIVL
B2: PRIM1 (parent)
chain: CCSSADICPKCWTLMTMAIRIIDR

Variants of: B1
Test: protein stability index of a GFP-peptide fusion (GPS, HEK-293T) (PSI 1-6); higher = more stable
Conditions: c terminus: a fixed tail appended
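Also: lentivirally expressed fusions sorted by FACS into six bins by GFP to DsRed ratio, PSI derived from sequencing read proportions per bin multiplied by bin number.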

Row | Variant | protein stability index
1 | LQLKFVSSLRRQFEFSVDSFQIVL [E2Q] | 2.48
2 | LFLKFVSSLRRQFEFSVDSFQIVL [E2F] | 2.6
3 | LKLKFVSSLRRQFEFSVDSFQIVL [E2K] | 3.23
4 | LYLKFVSSLRRQFEFSVDSFQIVL [E2Y] | 3.04
5 | LSLKFVSSLRRQFEFSVDSFQIVL [E2S] | 3
6 | LCLKFVSSLRRQFEFSVDSFQIVL [E2C] | 2.74
7 | LWLKFVSSLRRQFEFSVDSFQIVL [E2W] | 2.81
8 | LLLKFVSSLRRQFEFSVDSFQIVL [E2L] | 1.7
9 | LTLKFVSSLRRQFEFSVDSFQIVL [E2T] | 2.78
10 | LALKFVSSLRRQFEFSVDSFQIVL [E2A] | 2.56
11 | LRLKFVSSLRRQFEFSVDSFQIVL [E2R] | 3.42
12 | LMLKFVSSLRRQFEFSVDSFQIVL [E2M] | 2.57
13 | LDLKFVSSLRRQFEFSVDSFQIVL [E2D] | 2.46
14 | LILKFVSSLRRQFEFSVDSFQIVL [E2I] | 1.99
15 | LNLKFVSSLRRQFEFSVDSFQIVL [E2N] | 2.6
16 | LVLKFVSSLRRQFEFSVDSFQIVL [E2V] | 3.32
17 | LGLKFVSSLRRQFEFSVDSFQIVL [E2G] | 2.65
18 | LHLKFVSSLRRQFEFSVDSFQIVL [E2H] | 2.95
19 | HELKFVSSLRRQFEFSVDSFQIVL [L1H] | 2.49
20 | DELKFVSSLRRQFEFSVDSFQIVL [L1D] | 1.9
21 | FELKFVSSLRRQFEFSVDSFQIVL [L1F] | 3.04
22 | TELKFVSSLRRQFEFSVDSFQIVL [L1T] | 2.9
23 | VELKFVSSLRRQFEFSVDSFQIVL [L1V] | 2.79
24 | QELKFVSSLRRQFEFSVDSFQIVL [L1Q] | 2.32
25 | GELKFVSSLRRQFEFSVDSFQIVL [L1G] | 2.02

Row | Variant | protein stability index
26 | AELKFVSSLRRQFEFSVDSFQIVL [L1A] | 2.03
27 | IELKFVSSLRRQFEFSVDSFQIVL [L1I] | 2.7
28 | SELKFVSSLRRQFEFSVDSFQIVL [L1S] | 2.57
29 | RELKFVSSLRRQFEFSVDSFQIVL [L1R] | 2.33
30 | EELKFVSSLRRQFEFSVDSFQIVL [L1E] | 2.65
31 | KELKFVSSLRRQFEFSVDSFQIVL [L1K] | 2.36
32 | YELKFVSSLRRQFEFSVDSFQIVL [L1Y] | 2.56
33 | PELKFVSSLRRQFEFSVDSFQIVL [L1P] | 2.78
34 | WELKFVSSLRRQFEFSVDSFQIVL [L1W] | 1.92
35 | NELKFVSSLRRQFEFSVDSFQIVL [L1N] | 2.9
36 | MELKFVSSLRRQFEFSVDSFQIVL [L1M] | 4.32
37 | LELEFVSSLRRQFEFSVDSFQIVL [K4E] | 2.38
38 | LELAFVSSLRRQFEFSVDSFQIVL [K4A] | 2.28
39 | LELRFVSSLRRQFEFSVDSFQIVL [K4R] | 3.25
40 | LELLFVSSLRRQFEFSVDSFQIVL [K4L] | 3.25
41 | LELPFVSSLRRQFEFSVDSFQIVL [K4P] | 3.77
42 | LELGFVSSLRRQFEFSVDSFQIVL [K4G] | 2.9
43 | LELVFVSSLRRQFEFSVDSFQIVL [K4V] | 4.21
44 | LELIFVSSLRRQFEFSVDSFQIVL [K4I] | 2.9
45 | LELYFVSSLRRQFEFSVDSFQIVL [K4Y] | 2.06
46 | LELQFVSSLRRQFEFSVDSFQIVL [K4Q] | 3.84
47 | LELNFVSSLRRQFEFSVDSFQIVL [K4N] | 2.95
48 | LELSFVSSLRRQFEFSVDSFQIVL [K4S] | 3.75
49 | LELDFVSSLRRQFEFSVDSFQIVL [K4D] | 3.48
50 | LELHFVSSLRRQFEFSVDSFQIVL [K4H] | 3.46

Row | Variant | protein stability index
51 | LELMFVSSLRRQFEFSVDSFQIVL [K4M] | 4.16
52 | LELFFVSSLRRQFEFSVDSFQIVL [K4F] | 3.11
53 | LELCFVSSLRRQFEFSVDSFQIVL [K4C] | 3.62
54 | LEEKFVSSLRRQFEFSVDSFQIVL [L3E] | 1.66
55 | LENKFVSSLRRQFEFSVDSFQIVL [L3N] | 2.3
56 | LEYKFVSSLRRQFEFSVDSFQIVL [L3Y] | 2.2
57 | LEAKFVSSLRRQFEFSVDSFQIVL [L3A] | 3.39
58 | LETKFVSSLRRQFEFSVDSFQIVL [L3T] | 3.15
59 | LECKFVSSLRRQFEFSVDSFQIVL [L3C] | 2.84
60 | LEDKFVSSLRRQFEFSVDSFQIVL [L3D] | 3.2
61 | LESKFVSSLRRQFEFSVDSFQIVL [L3S] | 3.84
62 | LEWKFVSSLRRQFEFSVDSFQIVL [L3W] | 2.77
63 | LEKKFVSSLRRQFEFSVDSFQIVL [L3K] | 3.37
64 | LERKFVSSLRRQFEFSVDSFQIVL [L3R] | 2.23
65 | LEHKFVSSLRRQFEFSVDSFQIVL [L3H] | 1.82
66 | LEVKFVSSLRRQFEFSVDSFQIVL [L3V] | 3
67 | LEPKFVSSLRRQFEFSVDSFQIVL [L3P] | 1.62
68 | LEQKFVSSLRRQFEFSVDSFQIVL [L3Q] | 2.38
69 | LEIKFVSSLRRQFEFSVDSFQIVL [L3I] | 2.5
70 | LEGKFVSSLRRQFEFSVDSFQIVL [L3G] | 2.11
71 | LEFKFVSSLRRQFEFSVDSFQIVL [L3F] | 2.43
72 | LELKEVSSLRRQFEFSVDSFQIVL [F5E] | 1.4
73 | LELKDVSSLRRQFEFSVDSFQIVL [F5D] | 2.09
74 | LELKCVSSLRRQFEFSVDSFQIVL [F5C] | 3.27
75 | LELKAVSSLRRQFEFSVDSFQIVL [F5A] | 3.94

Variants of: B2
Test: as above
Conditions: c terminus: a fixed tail appended

Row | Variant | protein stability index
76 | CCSSADICPKCWTLMTMAIRIADR [I22A] | 2.1
77 | CCSSADICPKCWTLMTMAIRIEDR [I22E] | 2.57
78 | CCSSADICPKCWTLMTMAIRIRDR [I22R] | 2.5
79 | CCSSADICPKCWTLMTMAIRIMDR [I22M] | 1.8
80 | CCSSADICPKCWTLMTMAIRINDR [I22N] | 2.52
81 | CCSSADICPKCWTLMTMAIRIGDR [I22G] | 2.44
82 | CCSSADICPKCWTLMTMAIRIQDR [I22Q] | 2.81
83 | CCSSADICPKCWTLMTMAIRIPDR [I22P] | 2.71
84 | CCSSADICPKCWTLMTMAIRIVDR [I22V] | 2.34
85 | CCSSADICPKCWTLMTMAIRIWDR [I22W] | 1.72
86 | CCSSADICPKCWTLMTMAIRIHDR [I22H] | 1.9
87 | CCSSADICPKCWTLMTMAIRIKDR [I22K] | 2.94
88 | CCSSADICPKCWTLMTMAIRILDR [I22L] | 2.3
89 | CCSSADICPKCWTLMTMAIRIYDR [I22Y] | 2.09
90 | CCSSADICPKCWTLMTMAIRIFDR [I22F] | 1.59
91 | CCSSADICPKCWTLMTMAIRISDR [I22S] | 1.6
92 | CCSSADICPKCWTLMTMAIRITDR [I22T] | 2.97
93 | CCSSADICPKCWTLMTMAIRIIDQ [R24Q] | 1.52
94 | CCSSADICPKCWTLMTMAIRIIDP [R24P] | 3.32
